Experimental data taken from the nanobody polyreactivity screen of Harvey et al. (2022).

Assay: yeast display, Sf9 membrane polyspecificity reagent, FACS + sequencing; frameworks hold sequencing errors
Method in brief: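 In a synthetic yeast display library (Saccharomyces cerevisiae BJ5465), nanobody expression was induced with galactose for 36–48 hours. FACS gates were set low and high (top ~1%) using anti-HA fluorescence for expression and streptavidin fluorescence for binding of the Sf9 membrane reagent. Each polyreactivity label is drawn from the gate of origin.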

| Sequence | polyreactivity (PSR sort gate) |
| --- | --- |
| QVQLVESGGGLVQAGGSLRLSCAPSGSIFGYYTMGCYRQAPGKEREFVAAISYSGGSTYYADSVKGRFTISRDNANNTVYLQMNSLKPEDTAVYYCAARLYYFRGFKYYYWGQGTQVTVSS | low polyreactivity |
| QVQLVESGGGLVQAGGSLRLSCAAYGRISAMGWYRQAPGKERELVAAISRGGSTYYADSVKGRFTISRDNAKNTVYLQMNSLKPEDTAVYYCARRYASTGYDYWGQGTQVTVSS | high polyreactivity |
| QVQLVESGGGLVQAGGSLRLSCAASGSIFGAYAMGWYRQAPGKERELVAAITSGGSTNYADSVKGRFTISRDNAKNTVYLQMNSLKPEDTAVYYCAARRRYAKFRYDYWGQGTQVTVSS | high polyreactivity |
| QVQLVESGGGLLQAGGSLRLSCAASGSTFNKYTMGWYIKAPGKERELVAAITSGDSTYYADSVKGRFTISRDNAKYTVYLQMNSLKTEDTAVYYCAKSLRAYRHVIYGKPFYSWGQGTQVTVSS | low polyreactivity |
| QVQLVESGGGLVQAGGSLRLSCAASGSTFNANTMGWYRQAPGKEREFVAAISWTGASTYYADSVKGRFTISRDNAKNTVYLHMNSLKPEDTAVDYCNADYTVADGPYRDGYDYWGQGTQVTVSS | low polyreactivity |
| QVPLVESGGGLVQAGVSLRLSCAASGSIFYLYAMGWYRQAPGKERELVAAISRSGASTYYADSVKGRFTISRDNAKNTVYLQMNSQKPEDTAVYYCAAYKIWGRVRYDYWGQGTQVTVSS | low polyreactivity |
| QVQLVESGGGLVQAGGSLRLSCAASGFTLEYNAMGWYRQAPGKERELVAAIDGDGTTYYADSVKGRFTISRDNAKNTVYLQMNSLKPEDTAVYYCNTRTTPYYAQGITRIEYDYWGQGTQVTVSS | low polyreactivity |
| QVQLVESGGGLVQAGGSLRLSCAASGLTFQVYAMGWYRQAPGKERELVAGITRAGSTYYADSVKGRFTISRDNAKNTVYLQMNSLKPEDTAVYYCAARQPPPYYYWGQGTQVNVSS | high polyreactivity |
| QVQLVESGGGLVQAGGSLRLSCAASGITFRYYAMGWSRQAPGKERELVADITRSGGTTYYADSVKGRFTISRDNAKNTVYLQMNSLKPEDSAVYYCAVDLNWWGWGLLQYDYWGQGTQVTVSS | high polyreactivity |
| QVQLVESGGGLVQAGGSLRLTCAASGSIFVQYAMGWYRQAPGKERELVATISSSGGSTYYADSVKGRCTISRDNAKNTVYLQMNSLKPEDTAVYYFAADWTLDRSYGYYADDYWGQGTQVTVSS | low polyreactivity |
| QVQLVESGGGLVQAGGSLRLSCAASGRTFAGYAMGWYRQPPGKERELVAAITSSGGTTYYADSVKGRFTISRDNAKNTVYLQMNILKPEDTAVYSCAADLTWIYRWQTYNYDYWGQGTQVTVSS | high polyreactivity |
| QVQLVESGGGLVQAGGSLRLSCAAYGSTFWVYAMVWYRQAPGKERELVAAIDYSGGSTYYADSVKGRFTISRDNAKNNVYLQMNSLKPEDTAVYYCAAGEGQYWLWDGEGEYDYWGQGTQVTVSS | low polyreactivity |
| QVQLVESGGGLVQAGGSLRLSCAASGRTFWWYTMGWYRQAPGKERELVAVISSTGGRTYYADSVKGRFTISRDNAKNTVYLQMNSLKPEDTSVYYCAAEYVSAKWEYGYWGQGTQVTVSS | low polyreactivity |
| QVQLEDSLGGLVQAGGSLRLSCAASGGIFGLYDMGWYRQEPGKERELVAAISWSGGDTYYADSVKGRFTISRDNAKNTVYLQMNSLKPEDTAVYYCAADTYYYSGYEYDYWGQGTQVTVSS | high polyreactivity |
| QVQLVESGGGLVQAGGSLRLSCAASVRTQPRYAMGRYRQAPGKERDLVAAISRSGGSTHYADSVKGRFTISRDNAKNTVYFQMNSLKPEDTAVYYCATQRYPYRFYAFQYYYWGQGTQVTVSS | high polyreactivity |
| QVQLVESGGGLVQAGGSLRLSCAASGFTFQEYAMGWYRQAPGKERELVAAITSGTTTNYADSVKGRFTISRDNAKNTVYFQMNSLKPEDTAVYYCNVRSQSGSYRVYEYDYWGQGTQVTVSS | low polyreactivity |
| QVQLVESGGGLVQAGGSLRLSCAASVRIFGYARGWYRQAPGKERELVAAITSSGGRTYYADSVKGLFTISRDNAKNTVYLQMNSLKPEDTAVYYCAKDASVSYSTNFRYYYWGQGTQVTVSS | high polyreactivity |
| QVQIVESGGGLVQAGGSLRLSCAASGFTCRGNAMGWYRQAPGKERELVATISYNAGSTYYADAVKGRFTISRDNAKNTVYFQMNSLNPEDTAVYYCAVELDSEPDYEPWTEYDYWGQGTQVTVSS | low polyreactivity |
| QVQLVESGGGLVQAGGSLRLSCAASGSIFWWNAMGWYRQAPGKERELVAGISRGGSTYYADSVKGRFTISRDNAKNTVYLQMNSLKPEDTAVYYCNADSDPVPAGYDYWGQGTQVTLSS | low polyreactivity |
| QVQLVESGGGLVQAGGSLRLSCAASGNIFWWNAMGWYRQAPGKERELVAAITSDSTTYYADSVKGRFTISRDNAKNTVYLQMNSLKPEDTAVYYCNTVAYLRRFDKWGMNYWGQGTQVTVSS | low polyreactivity |
| QVQLVESGGGLVQAGGSLRLSCAASGSIFLLYAMGWYRQAPGKERELVARISWSGDNTRYADSVKGRFTISRDNAKNTVYLQMNSLKPEDTAVYYCNAYYFYGQWKGYDYWGQGTQVTVSS | low polyreactivity |
| QVQLVESGGGLVQAGGSLRLSCAASGSNFYGNAMGWYRQAPGKERELVAAISRSGGRSYYADSVKGRFTISRDNAKNTVYLHMNSLKPEATAVYYCAARQYQATLQYGYYPGYGYWGQGTQVTVSS | high polyreactivity |

| Sequence | polyreactivity (PSR sort gate) |
| --- | --- |
| QVQHVESGGGLVQAGGSLRLSCAASGRIFRDNAMGRNRQAPGKEREVVAAISRRGGSTYYADSVKGRFTISRDNAKNTVYLQLNSLKPEDTAVYYCNKTTHSRTFRYDYWGQGTQVTVSS | low polyreactivity |
| QVQLVESGGALVQAGGSLRLSCAASGRIFWDYVMGWYRQAPGKEREFVAAISLDGNITYYADSVKGRFTISRDNAKNTVYLQMNSLKPEDTAVFYCAADQYFFFRARGYDYWGQGTQVTVSS | low polyreactivity |
| QVQLVESGGGLVQEGGSLRLSCAASGRIFYSNAMGWYRQAPGKERENVAAISWSGGGTYYADSVKGRFTISRDNAKNTVYLQMNSLKPEDTAVYYCAAVFGYSWAFEYDYWGQGTQVTVSS | low polyreactivity |
| QVQLVESGGGLVQAGGSLRLSCAASGSTFAFYAMGWYRQAPGKERELVAAISFSGGSTYYADSVKGRFTISRDNAKNTVYLQMNSLKPEDTAVYYCNARYPNTRKYDYWGQGTQVTVSS | high polyreactivity |
| QVQLVESGGGLVQAGGSLRLSCAASGYTFDAYSMGWYRQAPGKERELVAAITTNGGSTYYADSVKGRFTISRDNAKNTVYLQMNSLKPEDTAVYYCNAEYSYEGRYPYDYWGQGTQVTVSS | low polyreactivity |
| QVQLVESGGGLVQAGGSLRLSCAASGRIVGRYVMGWYRQARGKERELVAAITSGGSTYYADSVKGRFTISRDNAKNTVYLQMNSLKPEDTAVYYCAAKWRSPRYYLYGYWGQGTQVTVSS | high polyreactivity |
| QVQLVESGGGLVQAGGSLRLSCAASGITFWLYAMGWYRQAPGKERELVAAISYSGGSTYYADSVKGRFTISRDNAKNTVYLQMNSLKPEETEVYYCNTGSRYRPNRRYGYWGQGTQVTVSS | high polyreactivity |
| QVQLVESGGGLVQAGGSLRLSCAASGSIFRKYAMGWYRQATGKERELVAAIRSSGGSTYYADSVKGRFTISRDNAKNTVYLQMNSLKPEDTSVYYWAATTGEHEDFRGQGTQVTVSS | high polyreactivity |
| QVQLVESGGGLVQAGGSLRLSCAASGSIFYPNVMGWYRQAPGKERELVATISRGGTTNYADSVKGRFTISRDNAKNTVYLQMNRLKPEDTAVYYCAAPIGDVYVGKGYDSWGQGTQVTVSS | low polyreactivity |
| QVQLVESGGGLVQAGGSLRLSCAASGFTFIYYAMGRYRQAPRKERELVAAISSGGSTYYADSVKGRFTISRDNAKNTVYLQMNSLKPEDTAVYYCAAGYWWPVQYYSRYNYWGQGTQVTVSS | high polyreactivity |
| QVQLVESGGGLVQAGGSLRLSCAASGRIFYHYAMGWYRQAPGKERELVAVIRSTGSTNYADSVKGRFTISRDNAKNTVYLQMNSLKPEDTAVYYCAVRRATYSYWYFNGGYWGQGTQVTVSS | high polyreactivity |
| QVQLVESGGGLVQAGGSLRLSCAASGLTFVENAMGWYRQAPGKERELVASISNGGSTYYADSVKGRFTISRDNAKNTVYLQMNSLKQEDTAVYYCAAGYWAGYGSTAPYDYWGQGTQVTVSS | low polyreactivity |
| QVQLVESGGRIVQAGRSLRLTCAASGRTFRNYAMGWYRQAPGKEREFVAAITSRSSRTYYADSVKGRFTISRDNEKNTVYLQMNSLIPEDTAVYYCARGSELGYYAWVYYWGQGTQVTVSS | high polyreactivity |
| QVQLVESGGGLVQAGGSLRLSCAASGFTFGYYTMGWYRQAPGKERELVAAISWSGGSTYYADSVKGRFTISRDNAKNTVYLQMNSLKPEDTAVYYCAAYRYGYDYWGQGTQVTVSS | high polyreactivity |
| QVQLVESGGGLVQAGGSLRLSCAASGSIFRINAMGWYRQAPGKEREFVAAISSRGGSTYYADSVKGRFTISRDNAKNTVYLQMKSLKPEDTAVYYCAKYASVGYGRYPYDYWGQGTQVTVSS | high polyreactivity |
| QVQLVESGGGLVQAGGRLRLSCAASGSTFGDYAMGWYRQAPGKEREFVAAITWSGGSTNYADSVKGRFTISRDYAKNTVYLPMNSLKPEDTAVYYCAKPWYSSGFEYWGQGTQLTVSS | high polyreactivity |
| QVQLEESGGGLVQAGGSLRLSCAASGRIFIRNAMGWYRQAPGKERELVAAISYSGGSTYYADSVKGRFTISRDNAKNTVYLQMNSLKPEDTAVYYCAAGSIRGTSFYYWGQGTQVTVSS | high polyreactivity |
| QVQLVESGGGLVQAGGSLRLSFAASGSTFWLYPMGWYRQATAKDREFVATISSSTTYYADSVKGRFTISRDNAKNTVYLQMNCLKAEDTEVYYCAKQHGLTSGGSRTDYWGQGTQGTVSS | low polyreactivity |
| QVQLVESGGGLVQAGGSLRVSCAASGSNFLGYTMGWYRQAPGKERELVAAINSSGGSTYYADSVKGRFTISRDNAKNNVYLQMNSLKPEDTAVYYCADANSILLFDSWGQGTQVTVSS | low polyreactivity |
| QVQLVESGGGLVQAGGSLRLSCAASGIIFTYYAMGWYTQAPGKERELVAAISSRGDSTYYADSVKGRFTISRDNAKNTVYLQMNSLKPEDTAVYYCNRYLSRPLRAMYYWGLGTQVTVSS | high polyreactivity |
| QVQLVESGGGLVQAGGSLRLSCAASGNTLHRYVMGWYRPAPGKERELVAVITRGTSTYYADSVKGRFTISRDNAKNTVYLQMNSLKPEDTAVYYCAARYTFPYSRYDYWGQGTQVTVSS | low polyreactivity |
